# Measurements: the Human Domainome abundance scans (Beltran et al. 2025)
# ± gives the uncertainty stated by the source.
# B1: Nuclear receptor subfamily 4 group A member 2, residues 260 to 336; numbered along this chain, P43354 (parent)
# chain: EGLCAVCGDNAACQHYGVRTCEGCKGFFKRTVQKNAKYVCLANKNCPVDKRRRNRCQYCRFQKCLAVGMVKEVVRTD
# B2: Transcription elongation factor A N-terminal and central domain-containing protein, residues 30 to 77; numbered along this chain, Q8N8B7 (parent)
# chain: LTELETIYVTKEHLQETDVVRAVYRVLKNCPSVALKKKAKCLLSKWKA
# Variants of: B1
# Test: abundance fitness (aPCA) (normalised: wild type 0, dead -1); higher = more abundant; growth selection in yeast, the domain comes from the species named
# Conditions: Homo sapiens
row,Variant,abundance fitness
1,D77W,-0.211 ± 0.075
2,D77I,-0.347 ± 0.31
3,D77G,-0.042 ± 0.044
4,D77V,-0.122 ± 0.065
5,D77C,-0.061 ± 0.095
6,D77M,-0.092 ± 0.14
7,D77A,-0.006 ± 0.086
8,D77E,0.117 ± 0.14
9,D77P,0.163 ± 0.18
10,D77F,-0.229 ± 0.15
11,D77R,-0.3 ± 0.089
12,D77S,-0.124 ± 0.12
13,D77L,-0.101 ± 0.077
14,D77K,-0.1 ± 0.18
15,V74D,0.131 ± 0.13
16,V74S,-0.101 ± 0.12
17,V74G,-0.013 ± 0.039
18,V74K,-0.025 ± 0.31
19,V74C,-0.098 ± 0.071
20,V74R,-0.118 ± 0.11
21,V74F,-0.148 ± 0.13
22,V74L,-0.052 ± 0.065
23,V74W,-0.208 ± 0.066
24,V74I,0.091 ± 0.13
25,V74A,-0.1 ± 0.1
26,T76I,-0.007 ± 0.19

row,Variant,abundance fitness
1,T76F,-0.079 ± 0.1
2,T76E,0.161 ± 0.13
3,T76C,0.109 ± 0.057
4,T76V,-0.019 ± 0.052
5,T76L,-0.228 ± 0.071
6,T76K,-0.041 ± 0.18
7,T76Q,-0.152 ± 0.19
8,T76M,-0.166 ± 0.17
9,T76N,0.221 ± 0.42
10,T76P,-0.004 ± 0.37
11,T76W,-0.085 ± 0.053
12,T76Y,0.168 ± 0.13
13,T76S,-0.014 ± 0.1
14,T76R,0.015 ± 0.068
15,T76A,0.117 ± 0.067
16,T76D,0.098 ± 0.098
17,M69D,-0.704 ± 0.27
18,M69A,-0.191 ± 0.092
19,M69V,-0.285 ± 0.047
20,M69E,-0.448 ± 0.17
21,M69G,-0.463 ± 0.042
22,M69R,-0.64 ± 0.12
23,M69C,-0.247 ± 0.06
24,M69S,-0.627 ± 0.23
25,M69W,-0.235 ± 0.053
26,M69I,-0.618 ± 0.34

row,Variant,abundance fitness
1,M69L,-0.07 ± 0.055
2,M69F,-0.042 ± 0.069
3,V70I,0.102 ± 0.14
4,V70E,0.062 ± 0.096
5,V70W,-0.255 ± 0.055
6,V70A,0.06 ± 0.062
7,V70L,-0.023 ± 0.058
8,V70R,-0.013 ± 0.064
9,V70M,-0.055 ± 0.18
10,V70G,-0.017 ± 0.034
11,V70S,-0.053 ± 0.097
12,V70K,-0.208 ± 0.43
13,V70F,-0.095 ± 0.071
14,V70P,-0.197 ± 0.18
15,G68S,-0.287 ± 0.12
16,G68V,-0.836 ± 0.089
17,G68N,-0.126 ± 0.41
18,G68M,-0.085 ± 0.29
19,G68R,-0.314 ± 0.074
20,K71G,-0.081 ± 0.035
21,K71Y,0.114 ± 0.15
22,K71A,0.008 ± 0.081
23,K71W,-0.194 ± 0.059
24,K71R,-0.054 ± 0.055
25,K71F,-0.258 ± 0.088
26,K71D,-0.296 ± 0.38

row,Variant,abundance fitness
1,K71Q,0.33 ± 0.43
2,K71E,-0.046 ± 0.084
3,K71M,-0.352 ± 0.2
4,K71I,-0.19 ± 0.18
5,K71P,0.141 ± 0.24
6,K71L,-0.078 ± 0.058
7,V73W,-0.104 ± 0.053
8,V73A,-0.258 ± 0.076
9,V73H,0.014 ± 0.32
10,V73S,-0.305 ± 0.17
11,V73L,-0.065 ± 0.08
12,V73C,-0.131 ± 0.071
13,V73G,-0.024 ± 0.033
14,V73R,-0.099 ± 0.091
15,V73F,0.02 ± 0.074
16,V73E,-0.063 ± 0.086
17,V73T,0.274 ± 0.43
18,V73D,-0.105 ± 0.14
19,V73M,-0.032 ± 0.17
20,R75L,0.015 ± 0.053
21,R75V,0 ± 0.036
22,R75E,0.094 ± 0.087
23,R75T,0.214 ± 0.37
24,R75Y,-0.112 ± 0.19
25,R75I,-0.017 ± 0.14
26,R75G,0.033 ± 0.031

row,Variant,abundance fitness
1,R75W,-0.103 ± 0.051
2,R75S,0.063 ± 0.12
3,R75C,0.057 ± 0.055
4,R75D,-0.136 ± 0.12
5,R75M,0.019 ± 0.13
6,R75A,-0.01 ± 0.075
7,R75N,0 ± 0.39
8,R75Q,0.065 ± 0.26
9,E72M,-0.099 ± 0.17
10,E72P,0.116 ± 0.14
11,E72A,-0.133 ± 0.11
12,E72V,-0.268 ± 0.049
13,E72F,-0.267 ± 0.09
14,E72T,0.092 ± 0.34
15,E72D,0.11 ± 0.15
16,E72K,0.154 ± 0.23
17,E72W,-0.276 ± 0.048
18,E72S,-0.012 ± 0.087
19,E72N,0.024 ± 0.16
20,E72L,-0.468 ± 0.083
21,E72I,-0.173 ± 0.18
22,E72G,-0.067 ± 0.036
23,E72C,-0.344 ± 0.075

# Variants of: B2
# Test: as above
# Conditions: Homo sapiens
row,Variant,abundance fitness
1,Y8L,-0.233 ± 0.17
2,Y8C,-0.489 ± 0.38
3,Y8N,-0.043 ± 0.26
4,Y8R,-0.094 ± 0.12
5,L27V,-0.445 ± 0.091
6,L27K,-0.845 ± 0.17
7,L27P,-0.444 ± 0.18
8,L27A,-0.593 ± 0.11
9,A34L,-0.279 ± 0.099
10,A34D,0.097 ± 0.13
11,A34Y,-0.174 ± 0.24
12,A34C,0.149 ± 0.18
13,A34T,-0.161 ± 0.12
14,L14K,0.23 ± 0.082
15,L14R,0.21 ± 0.057
16,L14C,0.061 ± 0.097
17,Y24Q,-0.223 ± 0.11
18,Y24V,0.11 ± 0.07
19,Y24F,0.172 ± 0.13
20,Y24N,-0.362 ± 0.15

row,Variant,abundance fitness
1,L43K,-1.04 ± 0.24
2,L43Q,-0.527 ± 0.14
3,L43V,-0.272 ± 0.084
4,L43M,-0.138 ± 0.15
5,V19R,0.037 ± 0.09
6,V19Q,-0.464 ± 0.21
7,V19P,-0.261 ± 0.13
8,V19K,-0.39 ± 0.14
9,V19W,-0.01 ± 0.15
10,V19L,-0.121 ± 0.092
11,V19F,-0.362 ± 0.18
12,K36L,-0.137 ± 0.079
13,K36F,-0.007 ± 0.13
14,K36H,-0.633 ± 0.18
15,K36N,-0.833 ± 0.19
16,D18L,-0.077 ± 0.097
17,D18S,0.353 ± 0.084
18,D18M,0.384 ± 0.14
19,D18T,0.158 ± 0.1
20,D18Y,0.057 ± 0.14
